Biological target: the molecule itself
Test: 2D-DIGE with tandem mass spectrometry of picked spots

B1: βB1-crystallin (natural protein, mouse (endogenous in mouse lens), UniProt Q9WVJ5 1-250, looked up)
chain: MSQAAKASATTAVNPGPDGKGKGAPSTGPAPAPGPTPVPASVPRPAAKVGDLPPGSYRLIVFEQENFQGRRVEFSGECLNLGDRGFDRVRSLIVVSGPWVAFEQSAFRGEMFVLEKGEYPRWDTWTSSYRSDRLMSFRPIRMDSQEHKICLFEGANFKGNTMEIQEDDVPSLWVYGFCDRVGSITVSGGTWVGYQYPGYRGYQYLLEPGDFRHWNEWGAFQPQMQAVRRLRDRQWHQEGCFPVLTAEPPK
  stoichiometry N: 2
